This assay addresses His6-tagged CNA (isoform not told) (UniProt P16298 1-524). The experiment in a line: SPR.

This note sets out measurements from article PMC9166766 (2022).

No end group written: not given here. *: point of attachment. Biotin = O=C1N[C@H]2[C@H](CS[C@H]2CCCCC(=O)*)N1

What is called Kd is the concentration at which binding is half-saturated.

B1: biotin-labeled CABIN1-L-1 peptide (peptide)
peptide: Biotin-AAAMAGFPPEITVTPPTP
For the molecule B1, the Kd came to 512 nM.
